{
  "source": "patent US20030091584A1",
  "about": "(AstraZeneca / MedImmune, published 2003)",
  "binders": {"B1": {"name": "SYNAGIS® (monoclonal antibody) (antibody, V domains shown)", "VH": "QVTLRESGPALVKPTQTLTLTCTFSGFSLSTSGMSVGWIRQPPGKALEWLADIWWDDKKDYNPSLKSRLTISKDTSKNQVVLKVTNMDPADTATYYCARSMITNWYFDVWGAGTTVTVSS", "VL": "DIQMTQSPSTLSASVGDRVTITCKCQLSVGYMHWYQQKPGKAPKLLIYDTSKLASGVPSRFSGSGSGTEFTLTISSLQPDDFATYYCFQGSGYPFTFGGGTKLEIK", "notes": "also called SYNAGIS ®/SYNAGIS ® (HC/LC)"}, "B2": {"name": "A4B4 (monoclonal antibody) (antibody, V domains shown)", "VH": "B1 VH with S32A, D60H, S67D, S100D, T103F, W105F, A112Q", "VL": "B1 VL with K24S, C25A, Q26S, L27S, S28R, S51F, K52F, A54D", "notes": "mAb; also called A4B4/A4B4 (HC/LC)"}},
  "key": {"[1]": {"target": "T1, F protein of wild type RSV A/Long (respiratory syncytial virus strain …, UniProt P12568 26-574)", "T1 sequence (P12568 26-574)": "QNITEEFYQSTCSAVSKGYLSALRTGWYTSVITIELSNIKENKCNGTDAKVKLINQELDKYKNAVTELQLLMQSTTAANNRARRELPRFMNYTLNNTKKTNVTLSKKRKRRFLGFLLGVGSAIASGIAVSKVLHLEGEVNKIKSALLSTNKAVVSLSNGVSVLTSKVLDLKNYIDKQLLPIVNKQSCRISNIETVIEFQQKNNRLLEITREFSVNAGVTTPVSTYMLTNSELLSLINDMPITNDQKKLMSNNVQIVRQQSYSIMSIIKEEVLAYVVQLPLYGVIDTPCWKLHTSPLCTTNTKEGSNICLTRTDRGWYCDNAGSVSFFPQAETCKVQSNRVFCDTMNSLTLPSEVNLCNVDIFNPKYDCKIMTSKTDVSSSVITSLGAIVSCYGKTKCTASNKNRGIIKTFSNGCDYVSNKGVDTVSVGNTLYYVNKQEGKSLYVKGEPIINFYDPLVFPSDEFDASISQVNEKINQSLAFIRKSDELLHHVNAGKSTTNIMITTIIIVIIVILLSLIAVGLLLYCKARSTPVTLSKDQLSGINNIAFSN", "test": "cell-based or functional assay"}, "[2]": {"target": "T1, F protein of wild type RSV A/Long", "test": "cell-based or functional assay", "remark": "listed apart in the source"}, "[3]": {"target": "T2, RSV F glycoprotein (NUF4) (respiratory syncytial virus)", "T2 chain 1": "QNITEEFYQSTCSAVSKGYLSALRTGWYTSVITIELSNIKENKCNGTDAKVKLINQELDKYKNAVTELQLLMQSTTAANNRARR", "T2 chain 2": "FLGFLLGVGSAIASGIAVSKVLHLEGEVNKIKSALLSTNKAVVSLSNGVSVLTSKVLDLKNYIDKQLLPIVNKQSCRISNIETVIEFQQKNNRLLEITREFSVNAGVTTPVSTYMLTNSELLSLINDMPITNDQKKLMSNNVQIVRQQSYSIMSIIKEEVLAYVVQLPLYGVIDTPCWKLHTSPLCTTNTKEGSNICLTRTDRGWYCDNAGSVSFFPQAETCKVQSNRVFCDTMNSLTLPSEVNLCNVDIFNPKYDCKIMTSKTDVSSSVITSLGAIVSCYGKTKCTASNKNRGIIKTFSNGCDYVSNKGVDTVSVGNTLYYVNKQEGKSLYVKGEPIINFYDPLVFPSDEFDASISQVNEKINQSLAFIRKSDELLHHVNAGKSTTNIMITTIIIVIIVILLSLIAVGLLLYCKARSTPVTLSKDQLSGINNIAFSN", "test": "BIAcore, mAb vs NUF4 (1:1)"}, "[4]": {"target": "T2, RSV F glycoprotein (NUF4)", "test": "BIAcore, mAb vs NUF4 (2:1)"}, "Bac-F": {"target": "T3, Bac-F", "T3 construct": "Construct and strain not described", "test": "BIAcore, mAb vs Bac-F (1:1)"}, "[5]": {"target": "T4, F protein of RSV A/Long MARM with K272N (respiratory syncytial virus strain …, UniProt P12568 26-574)", "T4 construct": "whole, on cells; also called MARM B1", "test": "IFA on MARM-infected HEp-2 cells"}, "[6]": {"target": "T5, F protein of RSV A/Long MARM with K272M (respiratory syncytial virus strain …, UniProt P12568 26-574)", "T5 construct": "whole, on cells; Seven independent isolates with the same change are kept as one molecule; also called MARM B2; MARM B3", "test": "IFA on MARM-infected HEp-2 cells"}, "[7]": {"target": "T6, F protein of RSV A/Long MARM with K272T (respiratory syncytial virus strain …, UniProt P12568 26-574)", "T6 construct": "whole, on cells; also called MARM B7; MARM B10", "test": "IFA on MARM-infected HEp-2 cells"}, "[8]": {"target": "T7, F protein of RSV A/Long MARM with K272Q (respiratory syncytial virus strain …, UniProt P12568 26-574)", "T7 construct": "whole, on cells; also called MARM B9; B9", "test": "IFA on MARM-infected HEp-2 cells"}, "[9]": {"target": "T8, F protein of RSV A/Long MARM with K272E, N276Y (respiratory syncytial virus strain …, UniProt P12568 26-574)", "T8 construct": "whole, on cells; also called MARM #10; MARM 10", "test": "IFA on MARM-infected HEp-2 cells"}, "[10]": {"target": "T9, F protein of RSV A/Long MARM with K272E (respiratory syncytial virus strain …, UniProt P12568 26-574)", "T9 construct": "whole, on cells; also called MARM #6; MARM #9", "test": "IFA on MARM-infected HEp-2 cells"}, "[11]": {"target": "T10, F protein of RSV MARM with K272Q, N262K (respiratory syncytial virus strain …, UniProt P12568 26-574)", "T10 construct": "whole, on cells; also called MARM #13; MARM 13", "test": "IFA on MARM-infected HEp-2 cells"}, "[12]": {"target": "T2, RSV F glycoprotein (NUF4)", "test": "ITC, NUF4 titrated into antibody"}, "[13]": {"target": "T2, RSV F glycoprotein (NUF4)", "test": "ITC, NUF4 titrated into antibody, 35 °C"}, "[14]": {"target": "T2, RSV F glycoprotein (NUF4)", "test": "ITC, NUF4 titrated into antibody, 35 °C (1/Kb)"}},
  "note": "Changes are numbered by the printed parent chain.",
  "data": [
    {"binder": "B1", "values": [
      {"measurement": "EC50 (nM), in vitro microneutralization of RSV Long", "setting": "[1]", "result": 3.57, "unit": "nM"},
      {"measurement": "Mean IC50 (Control), RSV microneutralization", "setting": "[2]", "result": 0.535, "unit": "µg/mL"},
      {"measurement": "Mean IC50 (Curve), RSV microneutralization", "setting": "[2]", "result": 0.453, "unit": "µg/mL"},
      {"measurement": "Kd", "setting": "[3]", "result": 8.7, "unit": "nM"},
      {"measurement": "Kd", "setting": "[4]", "result": 312, "unit": "nM"},
      {"measurement": "Kd", "setting": "Bac-F", "result": 3.9, "unit": "nM"},
      {"measurement": "binding result", "setting": "[5]", "result": "no binding (tested: 250 ng/ml)"},
      {"measurement": "binding result", "setting": "[6]", "result": "no binding (tested: 250 ng/ml)"},
      {"measurement": "binding result", "setting": "[7]", "result": "no binding (tested: 250 ng/ml)"},
      {"measurement": "binding result", "setting": "[8]", "result": "no binding (tested: 250 ng/ml)"},
      {"measurement": "binding result", "setting": "[9]", "result": "no binding (tested: 250 ng/ml)"},
      {"measurement": "binding result", "setting": "[10]", "result": "no binding (tested: 250 ng/ml)"},
      {"measurement": "binding result", "setting": "[11]", "result": "no binding (tested: 250 ng/ml)"}
    ]},
    {"binder": "B2", "values": [
      {"measurement": "Fold Difference (Control IC50)", "setting": "[2]", "result": 35, "unit": "fold"},
      {"measurement": "Fold Difference (Curve IC50)", "setting": "[2]", "result": 27, "unit": "fold"},
      {"measurement": "Mean IC50 (Control), RSV microneutralization", "setting": "[2]", "result": 0.0154, "unit": "µg/mL"},
      {"measurement": "Mean IC50 (Curve), RSV microneutralization", "setting": "[2]", "result": 0.0171, "unit": "µg/mL"},
      {"measurement": "Kd", "setting": "[3]", "result": 0.57, "unit": "nM"},
      {"measurement": "koff", "setting": "[3]", "result": 0.000282, "unit": "s⁻¹"},
      {"measurement": "kon", "setting": "[3]", "result": 496000, "unit": "M⁻¹ s⁻¹"},
      {"measurement": "number in parentheses after KD (fold against SYNAGIS = 1)", "setting": "[3]", "result": 15, "unit": "fold"},
      {"measurement": "Kd", "setting": "[4]", "result": 2, "unit": "nM"},
      {"measurement": "koff", "setting": "[4]", "result": 0.000401, "unit": "s⁻¹"},
      {"measurement": "kon", "setting": "[4]", "result": 203000, "unit": "M⁻¹ s⁻¹"},
      {"measurement": "number in parentheses after KD (fold against SYNAGIS = 1)", "setting": "[4]", "result": 156, "unit": "fold"},
      {"measurement": "Kd", "setting": "Bac-F", "result": 0.02, "unit": "nM"},
      {"measurement": "koff", "setting": "Bac-F", "result": "1.06e-05", "unit": "s⁻¹"},
      {"measurement": "kon", "setting": "Bac-F", "result": 434000, "unit": "M⁻¹ s⁻¹"},
      {"measurement": "number in parentheses after KD (fold against SYNAGIS = 1)", "setting": "Bac-F", "result": 195, "unit": "fold"},
      {"measurement": "ΔHb (binding enthalpy)", "setting": "[12]", "result": 22.2, "unit": "kcal/mol"},
      {"measurement": "binding result", "setting": "[9]", "result": "no binding (tested: 250 ng/ml)"},
      {"measurement": "binding result", "setting": "[10]", "result": "no binding (tested: 250 ng/ml)"},
      {"measurement": "binding result", "setting": "[11]", "result": "no binding (tested: 250 ng/ml)"},
      {"measurement": "Ka", "setting": "[13]", "result": "2.69e+08", "unit": "M⁻¹"},
      {"measurement": "Kd", "setting": "[14]", "result": "~3.7", "unit": "nM"}
    ]}
  ]
}
